The numbers were not newly measured in PMC7723891, which cites them from elsewhere.

For this data set, the target named is Spike RBD (SARS-CoV-2) (UniProt P0DTC2). In words: Biacore.

As to CD147 (from UniProt P35613), the dissociation constant (Kd) was 185 nM.
